Source: patent US20230052256A1 (DIZAL JIANGSU PHARMACEUTICAL, published 2023)

T1: recombinant human FGFR1b-Fc (R&D Systems) (human, UniProt P11362-19 22-376, limits assumed)
T1 construct: Bought from R&D Systems; also called hFGFR1b-Fc; not shown: human Fc of the bought fusion protein
T1 sequence (looked up): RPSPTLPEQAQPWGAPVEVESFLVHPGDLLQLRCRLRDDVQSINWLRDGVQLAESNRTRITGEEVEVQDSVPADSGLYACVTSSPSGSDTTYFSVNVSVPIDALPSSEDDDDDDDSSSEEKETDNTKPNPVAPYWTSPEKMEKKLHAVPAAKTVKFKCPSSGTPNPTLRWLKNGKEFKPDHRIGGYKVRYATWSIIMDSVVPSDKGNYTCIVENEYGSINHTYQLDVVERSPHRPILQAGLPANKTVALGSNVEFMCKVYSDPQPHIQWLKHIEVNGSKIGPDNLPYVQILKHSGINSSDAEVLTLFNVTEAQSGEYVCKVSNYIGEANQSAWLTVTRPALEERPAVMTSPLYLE

T2: human FGFR2b ECD fused with murine Fc (human)
T2 construct: The ELISA text says only 'recombinant human FGFR2b-Fc'; also called recombinant human FGFR2b-Fc; hu FGFR2b
T2 chain: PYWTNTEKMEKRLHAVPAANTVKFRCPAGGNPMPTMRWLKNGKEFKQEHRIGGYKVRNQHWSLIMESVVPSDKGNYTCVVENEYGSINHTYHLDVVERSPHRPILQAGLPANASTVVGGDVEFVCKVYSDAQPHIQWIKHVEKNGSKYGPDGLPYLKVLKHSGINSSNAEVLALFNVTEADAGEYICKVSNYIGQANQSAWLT

T3: recombinant human FGFR3b-Fc (R&D Systems) (human, UniProt P22607-2 23-377)
T3 construct: Bought from R&D Systems; not shown: human Fc of the bought fusion protein
T3 sequence (looked up): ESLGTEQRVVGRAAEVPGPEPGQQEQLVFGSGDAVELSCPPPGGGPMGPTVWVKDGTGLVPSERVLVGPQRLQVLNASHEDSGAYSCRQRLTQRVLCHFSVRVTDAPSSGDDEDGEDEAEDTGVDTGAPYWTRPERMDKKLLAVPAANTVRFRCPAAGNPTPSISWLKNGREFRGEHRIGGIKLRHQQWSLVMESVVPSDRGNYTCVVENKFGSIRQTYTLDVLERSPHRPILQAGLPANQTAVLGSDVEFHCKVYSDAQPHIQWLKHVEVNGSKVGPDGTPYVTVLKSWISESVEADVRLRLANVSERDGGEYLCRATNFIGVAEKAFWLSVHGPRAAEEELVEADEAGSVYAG

T4: recombinant human FGFR4-Fc (R&D Systems) (human, UniProt P22455 22-369)
T4 construct: Bought from R&D Systems; not shown: human Fc of the bought fusion protein
T4 sequence (looked up): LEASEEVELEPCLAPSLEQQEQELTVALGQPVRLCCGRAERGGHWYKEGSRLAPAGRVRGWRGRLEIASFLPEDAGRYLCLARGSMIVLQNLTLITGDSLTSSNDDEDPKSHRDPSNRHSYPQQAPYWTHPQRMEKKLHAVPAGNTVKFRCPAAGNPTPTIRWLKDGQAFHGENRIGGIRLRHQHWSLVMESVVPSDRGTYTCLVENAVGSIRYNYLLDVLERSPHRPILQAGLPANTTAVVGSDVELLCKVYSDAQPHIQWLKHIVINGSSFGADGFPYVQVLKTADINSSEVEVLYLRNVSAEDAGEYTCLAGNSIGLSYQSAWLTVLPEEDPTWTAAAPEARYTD


How the values were obtained:
[1] = molecular target: T5, human FGFR2b, endogenous, on KATOIII gastric cancer cells (human, UniProt P21802-3 22-822); assay: flow cytometry on KATOIII cells
T5 construct: whole, on cells; also called FGFR2b on KATOIII cells
Method: To confirm that the selected antibodies can bind to the endogenous forms of FGFR2b on the cell membrane, flow cytometry was performed using FGFR2b expressing KATOIII cells. All antibodies were prepared in PBS buffer with 10% donkey serum (Jackson Immunogen #017-000-121). 500,000 KATOIII cells were incubated with […] of different concentration of anti-FGFR2b antibody for 60 min at 4° C. Cells were washed twice and incubated in 100 μl of 10 μg/ml of 2nd IgG-Alexa488 antibody (Jackson Immunogen #709546149) for 30 minutes at 4° C. in the dark. Cells were washed three times and resuspended with wash buffer and analyzed on a flow cytometer.

[2] = molecular target: T5, human FGFR2b, endogenous, on KATOIII …; assay: cell-based or functional assay
[3] = molecular target: T6, cynomolgus FGFR2b-Fc (ECD fused to murine Fc) (cynomolgus monkey); assay: ELISA, plate coated with cynomolgus FGFR2b-Fc, anti-human IgG HRP
T6 construct: also called recombinant cynomolgus FGFR2b-Fc; cyno FGFR2b
Method: (§1) The cross-species binding of Ab 26c to recombinant cyno, rat/mouse, and human FGFR2b-Fc fusion proteins was conducted with ELISA. In brief, 96-well ELISA plate were coated with about 100 μl/well 0.1 μg/ml recombinant human FGFR2b-Fc, recombinant rat/mouse FGFR2b-Fc, or recombinant cynomolgus FGFR2b-Fc protein in PBS overnight. Then the plate was blocked with 2% BSA in PBS with 0.05% Tween20 and incubation with antibody samples for 60 min at room temperature, and then washed twice in 1×TBST (Cell Signaling Technology, #9997) and followed by incubation with anti-human IgG HRP conjugate for 60 min at a room temperature. HRP activity was detected with tetra-methylbenzidine substrate (Cell Signaling Technology, #7004) and the reaction was stopped with stop solution (Cell Signaling Technology, #7002). The plate was read at 450 nm. […] Ab 26c has the highest binding affinity to rat/mouse FGFR2b, followed by human FGFR2b, and then cynomolgus FGFR2b.

[4] = molecular target: T7, rat/mouse FGFR2b ECD fused with murine Fc (rat); assay: ELISA, plate coated with rat/mouse FGFR2b-Fc, anti-human IgG HRP
T7 construct: also called recombinant rat/mouse FGFR2b-Fc; rat FGFR2b
Method: as §1

[5] = molecular target: T8, human FGFR2b (beta)-Fc, human Fc fusion (human); assay: SPR (Biacore T200), hFGFR2b-Fc amine-coupled to a CM5 chip, antibody injected at 0-200 nM
T8 construct: range 65-267; Made in 293F cells; The Biacore and Ab 26 ELISA text says only 'hFGFR2b-Fc' or 'FGFR2b'; also called hFGFR2b-Fc; human FGFR2b-Fc
Method: (§2) The binding of antibodies to human FGFR2b or human FGFR1b antigen was determined by surface plasmon resonance (Biacore). Briefly, CM5 sensor chip (GE Healthcare Life Sciences) was firstly activated by a 4 min injection of 1:1 freshly mixture of 50 mM N-hydroxysuccinamide (NHS): 200 mM EDC […]. Then hFGFR2b-Fc or hFGFR1b-Fc was immobilized to activated CM5 sensor chip using Amine Coupling Kit (GE Healthcare Life Sciences) and 1M ethanolamine as the blocking reagent. About 20-30 response units (RU, 1 RU represents the binding of 1 pg of protein per square mm) of antigen protein were captured.
(§3) Antibodies were diluted in HBS-EP+ running buffer (GE Healthcare Life Sciences) (10 mM HEPES, 150 mM NaCl, 3 mM EDTA, 0.05% surfactant P20, pH 7.4) and injected at serial concentration (0, 6.25, 12.5, 25, 50, 100, 150, 200 nM) and surface regeneration of the CM5 sensor chip were included in each running cycle. The association constant, dissociation constant were calculated with Biacore T200 evaluation software (version 1.0). […] In addition, Ab 26c is distinguished from the antibody FPA144 in terms of FGFR1b binding.

[6] = molecular target: T1, recombinant human FGFR1b-Fc (R&D …); assay: SPR (Biacore T200), hFGFR1b-Fc amine-coupled to CM5 chip, antibody injected
Method: as §2, §3

[7] = molecular target: T1, recombinant human FGFR1b-Fc (R&D …); assay: SPR (Biacore T200), hFGFR1b-Fc amine-coupled to a CM5 chip, antibody injected at 0-200 nM
Method: as §2, §3

[8] = molecular target: T8, human FGFR2b (beta)-Fc, human Fc fusion; assay: SPR (Biacore T200), hFGFR2b-Fc amine-coupled to CM5 chip, antibody injected
Method: as §2, §3

[9] = molecular target: T2, human FGFR2b ECD fused with murine Fc; assay: ELISA, plate coated with human FGFR2b-Fc, anti-human IgG HRP
Method: as §1

[10] = molecular target: T3, recombinant human FGFR3b-Fc (R&D …); assay: ELISA on HuFGFR3b
[11] = molecular target: T4, recombinant human FGFR4-Fc (R&D Systems); assay: ELISA on HuFGFR4
[12] = molecular target: T8, human FGFR2b (beta)-Fc, human Fc fusion; assay: ELISA on HuFGFR2b
[13] = molecular target: T1, recombinant human FGFR1b-Fc (R&D …); assay: ELISA on HuFGFR1b

T5 sequence (P21802 other isoform, or with tags, fused parts or gaps): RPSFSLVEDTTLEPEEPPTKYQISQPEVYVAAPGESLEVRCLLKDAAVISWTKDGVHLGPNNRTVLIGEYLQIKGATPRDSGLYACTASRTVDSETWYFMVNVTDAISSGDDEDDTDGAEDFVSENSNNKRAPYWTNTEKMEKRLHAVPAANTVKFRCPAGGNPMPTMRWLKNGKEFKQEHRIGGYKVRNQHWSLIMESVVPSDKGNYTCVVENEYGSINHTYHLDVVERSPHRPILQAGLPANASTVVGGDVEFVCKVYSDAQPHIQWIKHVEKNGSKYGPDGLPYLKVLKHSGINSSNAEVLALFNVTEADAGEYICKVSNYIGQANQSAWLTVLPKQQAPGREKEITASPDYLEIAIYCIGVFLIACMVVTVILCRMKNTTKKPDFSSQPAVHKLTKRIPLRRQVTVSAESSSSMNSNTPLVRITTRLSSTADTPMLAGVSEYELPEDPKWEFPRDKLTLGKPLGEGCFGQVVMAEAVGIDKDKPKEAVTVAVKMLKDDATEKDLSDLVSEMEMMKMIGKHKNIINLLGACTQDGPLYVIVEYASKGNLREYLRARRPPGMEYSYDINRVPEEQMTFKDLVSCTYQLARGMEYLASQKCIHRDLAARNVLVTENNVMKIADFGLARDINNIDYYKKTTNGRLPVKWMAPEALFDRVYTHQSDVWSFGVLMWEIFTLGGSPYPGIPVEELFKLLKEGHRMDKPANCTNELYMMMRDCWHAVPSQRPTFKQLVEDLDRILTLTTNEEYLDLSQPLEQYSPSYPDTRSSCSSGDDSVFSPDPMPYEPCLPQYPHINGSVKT

EC50 [1] | ADCC EC50, KATOIII target cells with human NK effector cells (E/T 8:1) [2] | EC50 (read off the curve) [3] | EC50 (read off the curve) [4] | koff [5] | kon [5] | Kd [6] | koff [7] | kon [7] | Kd [8] | EC50 (read off the curve) [9] | EC50 (read off the curve) [12] | EC50 (read off the curve) [13] | Binder | binding result [10] | binding result [11]
~3000 pM | 0.034 µg/mL | ~600 pM | ~200 pM | 0.00017 s⁻¹ | 101000 M⁻¹ s⁻¹ | 3210 pM | 0.000552 s⁻¹ | 172000 M⁻¹ s⁻¹ | 1680 pM | ~200 pM |  |  | Ab 26c (chimeric antibody based on Ab 26) (antibody, V domains shown, Mouse VH and VL fused to a human heavy chain constant region and a human light chain constant region; also called chimeric Ab26c) VH: DVHLQESGPGLVKPSQSLSLTCSVTGYSITSGYYWNWIRQFPGNKLEWMGYITYDGSNNYNPSLKNRLSITRDTSKNQFFLQLSSLTTEDTATYFCARVYYYGSGNFDVWGTGTTVTVSS VL: SIVMTQTPKILLVSAGDRVTITCKASQSVSNDVAWYQQKPGQSPKLLIYYASNRYTGVPDRFTGSGYGTDFTFTISTVQAEDLAVYFCHQDHTSPFTFGSGTKLEIK |  | 
 |  |  |  |  |  |  |  |  |  |  | ~80 pM | ~100 pM | Ab 26 (mouse monoclonal antibody) (antibody, V domains shown, Mouse hybridoma antibody; also called mouse Ab 26) VH: DVHLQESGPGLVKPSQSLSLTCSVTGYSITSGYYWNWIRQFPGNKLEWMGYITYDGSNNYNPSLKNRLSITRDTSKNQFFLQLSSLTTEDTATYFCARVYYYGSGNFDVWGTGTTVTVSS VL: SIVMTQTPKILLVSAGDRVTITCKASQSVSNDVAWYQQKPGQSPKLLIYYASNRYTGVPDRFTGSGYGTDFTFTISTVQAEDLAVYFCHQDHTSPFTFGSGTKLEIK | no binding (tested: about 10^-7.3 M (about 5e-8 M)) | no binding (tested: about 10^-7.3 M (about 5e-8 M))
